Consider twelve sequences from a protein production outcome set (Wang et al. 2014).

This series can be described thus: label from the status in PepcDB records.
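Further: failed if final PepcDB status was selected cloned or expressed and not failed if soluble or beyond.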

Take “MKAKHLTQLLKASFLSCSMIATTLSMAQLPPAPQEKYGDGRVSEFYTWKSAIPAQPGKLLRTEAVHNPYIRLANDSQAIRILYSSTSGKDSKTPIVVSGSIHLPKGNPPKEGWPVVLWAHGTVGLADACAPSWSGRSYRDVQYLNRWLNEGFAVVATDYEGLGVAGPHLLINNPMLAYSILDSGRAALKTKLPLANKFVIVGQSQGGAGAVAASSYSATYAPDLNIKGSIGTGVIYKDPEATPEKNQLKLNPYEVSPSLAYGIYSFLVTQSLYPEIKTEEIFTPEAAPLVEQARNACLTSFMGDIQTAGLSPAQAYKPNPPTSYKKLQEKESNDYGYYPTLKISHPLFIGTGANDRTPDARSQMKLVADACKAGTVVEGHLYHGLGHSETVNASLKDSIPFAKKVIAGEKIQAICKPDLQ”: the protein production entry is “failed”.

As for “MKALLPGLYLLPVPIPYPLKTVNLYLLQGAGEVALVDTALGTRAARGALELHLAELGLCFQDVKTILLTHHHPDHYGLSGFFEGLGARVFLHEEEFARGHRFWREPEAFAEASWRLFLDHGTPEGALQGIRETVEKTRERVHPPQNPLPLRDGEALEVAGKRLRVLWTPGHADGHAAFYLEEEGVLLAGDALLEKVSPNVGLWAYTRENPLKDFLRSLDRLADLGARVAYAGHFGPIADVRQRAEELKAHHQARLEALLALLDGPKTAWELSLHLFPQELDPAGRRFAFAETLAHLEYLREEGAVGRGGPPYRYFRR”, the protein production entry is listed as “not failed”.

For the sequence “MKAPEGIACGKRQLVVSDTGGGRLLSYSIENGSVRGGTEIKAEQVPYPTKVQLTSKGEILVIDGKLRRIAHFSPEGSFAGYLDLKGVPAPATIAPRGIRVDDKDNIHILDIFGARVIVTDAAGTFQSQMPFPEGYRFISDLAVSASGTTLLLDSVASRVYAAARGETAFKPLTDGMKEYLQFPTSIATDKQGKIFILDQTGNAVVTLGQDGSFQGRQLNIGWKNSFLHYPSQLCISEENDIDVVIADRNNNRIQVFRVVRLEHHHHHH”, the protein production result is reported as “failed”.

Consider “MKAPLVSIIIPVWNLWELTCACLDSIRAHTPGNAVEVIVVDNGSDDTTATALAPTGEGLFGARFRRIRLETNRGFAVACNLGAAKAQGTYLLLLNNDTVLSPGWLPPLLREFDDEPRTGAAGPLLVYPDSGRVQHCGIAFAPTLQTEHLYANFPATHPAVRARRTLQAITGAAMLLPTALFRQCGGFHEGYKNGCEDLELCCRIREQGLRLAVVPESLVAHHESRTPGRKEHDAANATLLNRRCSGCFGPDLHRHALRDGFAIALTPWLDTYLTLPPGREAALTREHITDFDPGRCWETLQGEPLWHGGYEMLCSILDEAGRHAESAGVRLLQAGFFPTLPGFRQLARSAALSGNDELARQAAEKMQHIGGILEDPEPLVTRARGLVRWARRAGEPAVEALYTGWLTDIGLSADDLEHHHHHH”, for which the protein production result is given as “not failed”.

As for “MKAPRLIGAEIFRHSSYGRWHPLRVPRVSTVMDLSRAMGWLPPAQFITAPRAKPKALLAWHTADYIAALQRVEATQEATPHDTQRHDIGTVTNPVYPEIFRRPATAAGGSLLAGELLREGGIIYNPPGGTHHGMPDRANGFCYLNDPVLAMLSLRRNGVQRIAYVDIDAHHCDGVAAGFHGDPQCLMISVHEEGLWPRTGLLEDTAGGAGLNLPVPRGLNDTEMAYIRDRLILPQVEAFRPDAVVLLCGADGVEEDPLAHLCLSNNAHWAVTKALMGIAPRMLVLGGGGYNPWSVGRLWTGVWATLNGHDIPDRLPPEAQAVLRALRFEGNRRGKNPPEHWFTTLRDAPRPGPVRSDITDRVAELSRKAARLRLDH”, the protein production result is on record as “failed”.

“MKAVIVYASVHHGNTKKIAEAMASVISADVIDVTRKIKPDLSGYDVIGFASGVYFHTFHERIKKCIEENLFSKGQKVFLVATCGLGYRDYTKGIKDILAKKHVSFIGNFQCRGWDTYGIFGKIGGIAKKHPNDRDLKEAQQFVLKTVCEKTIDDVALLG”: the protein production entry is reported as “failed”.

“MKAVRRQISRFSAHRWWSIVLKEFLQLRRDRVTFGMMIGIPIIQLLLFGFAINSDPRHMPTAVIVAEHSDFSRTFIAALDNTTYFKVVRTMPDEASGREALMRGDVQFVVSIPADFSRRLLHGDRPSILVEADATDPSATGQAIAALAQLPATVARIDLKGALAPLAGGQPAFDVNVHRLYNPEGITQYNIVPGLMGTILTMTMVMMTGLAMTRERERGTMENLLATPVQPLEVISGKIIPYIFIGLIQATIILLAAHFVFGVPFVGSPVAVYLAALLFIAANLTVGITLSSLAANQLQALQLTFFYFLPNILLSGFMFPFAGMPTWAQWIGNVLPMTYFNRMIRSIMLKGSGWIELWPNVWPVALFTVIVLTIAVRFYKRTLD”: the protein production result was “failed”.

Regarding “MKAVVMAGGEGTRLRPMTANQPKPLLPVVNRPIMEHVLRLLKRHGFEDTVVTVQFLATLIRNYFGDGEELGMSLRYVAEEVPLGTAGSVKNAEEHLRGEPFIVISGDALTDIDLTDMVRFHRENGALVTIGLKRVANPLEFGIIIVDDNGRIQRFLEKPTWGQVFSDTVNTGIYIMEPEVLDHVAPGENVDWSGDVFPKLLKAGAPLYGYIADGYWEDVGTHESYLRAQADVLSGKVDVEIDGFEVSPGIWVAEGAEVDPEAVLKGPLYIGDYAKVEPGAELREFTVLGSNVVVRSEAFLHRAVVHDNVYVGTRANLRGCVVGKNTDIMAGVRIEEGTVVGEECVLESEAYLANNIKVYPFKTIEAGAVVNTNVIWESKGQRSLFGPRGVSGLINVEITPELAVRLASAYATTLKKGAVVTTARDASRAARTLKRAVISALTAAAINVQDLEATPLPLARFHTSQPGLSGGIALRTTPGDPQSVDIVFLDSSGADLSPAAQRKLERVFSRQEYRRAFPGEIAELSFPSRSVEAYTRELLQSIDLSGVAEANLKVVVDCAGGTGSLILPALLSQIDADVLTVNNRLDEASPTDTPAKRTRDLQRLGELVASARADFGVRFDPVGERIQLVDGSGTLVDDERALLVVLDLVAAERQGGRVALPVTTTRVAEQVANRHGVDVQWTPTSLDALTKAALADDIIFAADGRGGFILPEFSRTCDGIAAFVRLIGLVARTKMSLSQIDQRIPQAHLLRRSVPTPWAVKGSVMREVVEAAQGREIDTTDGVRVIEPDGSWALVLPDTAEAVTHLWAEGPDDETAQRLLEEWSAVVERAEG”, the protein production entry is listed as “failed”.

Take “MKAYQNILVAIDGSGADDALIEQVSALAAPLGSRVHLLHVVHSHTIDQERALREQAGEFLERYRAAMQQQGIEAEVLIRSGEPDREILKEIEERRYDLLAMAAHGHRLFSRLLFGSVSRALRNKIDIPLLLVRGEAR”: the protein production entry was “failed”.

Take “MKDEVQLKKYLPSLIFAIILPVIAYLFLKMLGNSDTLALGIATAFPVVHMLWSLIRKKELNPVSLVAIIGFLISLLAVYLTHGNNLAFKLWHPILTAAIGTIFLLSVLLNRPLLELASEGENHRKMLIMTLFMGLVFIFHALSVILLAFFVETTAFVLLSKVIDFSAVGVLVLGLAFLRKKLN”: the protein production entry was “failed”.

“MKDFFPLQQGGLVLEWVNTETKLRQLWAFRHRIFREQLQWVPLCEDGFDRDAYDDFSDNLVLCRDGEVVGAIRLTTGEHPFMLEEEFSRLLAPGERIGKGAEYSEITRLAVDREALGARESIMAARLLYLGAWLWSQVQGVRWMYFVVEPVFYRRLVMMGFPIVPVGIPRPLDGGVMSMTGLLDWRQAKTELIRSLTRGVSSPSACQALWHEYDYSH”: the protein production entry was “failed”.

As for “MKDFIRYTKKRNLSLNTIRTYESVLKHYEPVLDSWIKIRNKIINSNFKPRTIHLHKNVLLSFFEFKKLKRYLQNLKLLKLPQIEMKYFDVISKNNLYKKTDILDDDSLEIKKYKTIIRFLFETGIRAHELFFLESINNRLYVLGKGNKKRQIFFVKQTFEQLQKFYENLKGFETTKTLRLYIKKIIGKNFTPHSLRRSFATFMLIKGANPKTVMLQMGHANIQTTFSYLNLNEQTNRRIYNKIMYQNDAE”, the protein production entry is “failed”.
